Results published in PMC4027207, “Molecular dissection of the domain architecture and catalytic activities of human PrimPol” (Nucleic Acids Research, 2014).

Biological target: T1, PrimPol372-560/ZF-KO (Homo sapiens, UniProt Q96LW4 372-560, C419A;H426A)
T1 sequence: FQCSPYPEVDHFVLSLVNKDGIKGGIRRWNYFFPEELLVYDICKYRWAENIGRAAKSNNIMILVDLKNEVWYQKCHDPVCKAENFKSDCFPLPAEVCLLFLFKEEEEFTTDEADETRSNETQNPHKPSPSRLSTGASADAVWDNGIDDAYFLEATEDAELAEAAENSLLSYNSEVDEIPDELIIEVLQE
Assay: EMSA; 10 mM Mg2+; 40 nM DNA; no binding, protein 0.05-20 uM; 10 mM Bis-Tris-Propane-HCl pH 7.0, 10 mM MgCl2, 1 mM DTT, 40 nM DNA, 25°C, 60 min; 5% polyacrylamide gel in 0.5x TBE
Settings: protein: recombinant; tags: His (Ni-NTA purified); label: 5'-Hex

TGTCGTCTGTTCGGTCGTTCGGTCTTCAAGGCTGTTGTGCGCCCTGCGCG (ssDNA) [HP-50 ssDNA (sequence 7)]: no binding.
